According to CN114349850A (JIANG QINGHUA; WANG PINGPING; STEP HIGH; ZHAO DONGMING, dated 2022):

Assays:
[1] = molecular target: SARS-CoV-2 Spike RBD区域蛋白 (SARS-CoV-2, UniProt P0DTC2 319-541); assay: competitive ELISA, GD1-69 against ACE2 for SARS-CoV-2 S protein / RBD
[2] = molecular target: SARS-CoV-2 Spike蛋白 (SARS-CoV-2, UniProt P0DTC2 16-1213); assay: cell-based or functional assay

B1: GD1-69 (antibody, human IgG1, kappa, V domains shown)
VH: EVQLLESGGGLVQPGGSLRLSCAASGFTFSNYAMSWVRQAPGKGLEWVSVIYSGVSSTYYEDSVKGRFTISRDNSKNTLYLQMNSLRAEDTAVYYCAKDPSYDTRGYIFDYWGQGTLVTVSS
VL: DIVMTQSPATLSVSPGERATLSCRASQSVSTNLAWYQQKPGQAPRLLIYGTSTRATGVPARFSGSGSGTEFTLTISSLQSEDFAIYYCLQYNNWRTFGQGTKLEIKR
notes: also called 目标抗体; GD1-69抗体
In the case of B1, the IC50 [1] is reported as 0.26 µg/mL, the “噬斑减少中和测试 (活SARS-CoV-2病毒, Vero E6细胞) IC50” value [2] is reported as 0.44 µg/mL and the “基于假病毒的中和试验 IC50” value [2] is reported as 1.77 µg/mL.
